The target of data set [1] is Full-length kinesin heavy chain (Khc FL), unlabeled (Drosophila) (UniProt P17210). Nature of the data set: mass photometry; coexpressed, copurified Khc–Tm1 complex at 20 nM in PBS.
Data set [2] concerns the target SNAP-tagged full-length kinesin heavy chain (Khc FL), Alexa Fluor 647-labeled (Drosophila) (UniProt P17210). Nature of the data set: single-molecule TIRF colocalisation and motility assay on microtubules; Khc RNP mixes assembled at 500 nM of each component, diluted to 6.25 nM in BRB12 with 2.5 mM MgATP; taxol-stabilized microtubules immobilized by biotin-streptavidin; Cy3-osk 3′ UTR present.

Data set [3] concerns the target SNAP-tagged full-length kinesin heavy chain (Khc FL), Alexa Fluor 647-labeled (UniProt P17210). The data set is described as above. As to conditions: other: single-molecule TIRF colocalisation and motility assay on microtubules.
The target of data set [4] is SNAP-tagged full-length kinesin heavy chain (Khc FL), Alexa Fluor 647-labeled (Drosophila) (UniProt P17210).

The values that follow come from article PMC10948360.

By stoichiometry N is commonly meant a count of units in the complex or per binding partner.

Sequence of SNAP-tagged full-length kinesin heavy chain (Khc FL), Alexa Fluor 647-labeled (Drosophila) (P17210 whole entry): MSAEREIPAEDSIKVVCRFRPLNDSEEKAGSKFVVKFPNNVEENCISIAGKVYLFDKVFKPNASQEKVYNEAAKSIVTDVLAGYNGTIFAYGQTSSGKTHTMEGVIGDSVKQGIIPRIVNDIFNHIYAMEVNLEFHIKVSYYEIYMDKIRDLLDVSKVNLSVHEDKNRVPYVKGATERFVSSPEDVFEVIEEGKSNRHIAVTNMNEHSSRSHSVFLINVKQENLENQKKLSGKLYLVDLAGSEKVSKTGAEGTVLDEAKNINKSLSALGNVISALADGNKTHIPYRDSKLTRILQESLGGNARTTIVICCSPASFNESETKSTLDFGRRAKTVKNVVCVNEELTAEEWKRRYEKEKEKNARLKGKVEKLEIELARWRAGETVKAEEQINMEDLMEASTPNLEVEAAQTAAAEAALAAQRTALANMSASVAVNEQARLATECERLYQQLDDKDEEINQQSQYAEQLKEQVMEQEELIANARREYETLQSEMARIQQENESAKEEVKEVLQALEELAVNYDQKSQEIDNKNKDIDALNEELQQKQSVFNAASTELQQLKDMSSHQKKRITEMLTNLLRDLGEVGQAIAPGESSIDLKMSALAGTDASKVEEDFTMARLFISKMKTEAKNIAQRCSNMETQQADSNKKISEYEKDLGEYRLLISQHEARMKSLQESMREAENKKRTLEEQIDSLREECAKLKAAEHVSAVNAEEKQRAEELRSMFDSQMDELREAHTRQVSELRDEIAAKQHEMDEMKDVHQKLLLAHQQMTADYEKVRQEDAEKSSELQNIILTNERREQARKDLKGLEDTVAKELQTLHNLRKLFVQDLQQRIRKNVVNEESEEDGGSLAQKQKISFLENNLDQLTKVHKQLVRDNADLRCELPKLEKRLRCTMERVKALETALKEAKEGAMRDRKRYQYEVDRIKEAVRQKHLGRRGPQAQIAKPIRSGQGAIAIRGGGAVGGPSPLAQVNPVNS
Sequence of Full-length kinesin heavy chain (Khc FL), unlabeled (Drosophila) (P17210 whole entry): as above
Sequence of SNAP-tagged full-length kinesin heavy chain (Khc FL), Alexa Fluor 647-labeled (P17210 whole entry): as above

In data set [1], “Full-length Tm1-I/C (Tm1 FL) coexpressed and copurified with Khc FL (natural protein)” gave a stoichiometry N of 2 Khc per Tm1. “SNAP-Tm1 1-335, fluorescently labeled (domain or fragment)” displayed a percent of Khc signals colocalized with Tm1 signals in data set [2] of 71%. As for “SNAP-tagged full-length Tm1-I/C (Tm1 FL), Alexa Fluor 488-labeled”, in data set [3], the “percent of Khc molecules bound to Tm1, corrected for the labeling efficiency of Tm1” value is on record as ~95% of Khc molecules were bound to Tm1. “SNAP-tagged full-length Tm1-I/C (Tm1 FL), Alexa Fluor 488-labeled (natural protein)” showed a percent of Khc signals colocalizing with Tm1 signals in data set [2] of 44.6%. The mean velocity of microtubule-associated Khc FL complexes in the TIRF motility assay in the presence of Tm1 FL (0.240 µm s^−1 without Tm1) in data set [4] came out at 0.099 µm s^−1.
